Data published in paper PMC5146963, “The mechanism of a formaldehyde-sensing transcriptional regulator” (Scientific Reports, 2016).
Substitutions are numbered along the chain they refer to. Names and notes keep the numbering of the source.

B1: Escherichia coli FrmR (EcFrmR) (natural protein, Escherichia coli K-12, UniProt P0AAP3 2-91, looked up)
chain: PSTPEEKKKVLTRVRRIRGQIDALERSLEGDAECRAILQQIAAVRGAANGLMAEVLESHIRETFDRNDCYSREVSQSVDDTIELVRAYLK
notes: FrmR, transcriptional repressor of the frmRAB operon, E. coli K-12; last residue Lys91; frmR amplified from E. coli K12 genomic DNA and ligated into pET22b at NdeI and NcoI; no tag is mentioned and the measured mass fits the untagged protein without Met1; source: E. coli expression strains (JRG6782, 6783 and 6784), frmR in pET22b, purified (Heparin-HP, HiLoad Superdex 200)
B2: EcFrmR(C35A) (natural protein, Escherichia coli K-12, UniProt P0AAP3 2-91, looked up)
chain: B1 chain with C34A
notes: FrmR, E. coli K-12, with C35A; Mutation made by overlap PCR or Quikchange; also called C35A variant; source: E. coli expression strains (JRG6782, 6783 and 6784), purified (Heparin-HP, HiLoad Superdex 200)
B3: EcFrmR(P2A) (natural protein, Escherichia coli K-12, UniProt P0AAP3 2-91, looked up)
chain: B1 chain with P1A
notes: FrmR, E. coli K-12, with P2A; Mutation made by overlap PCR or Quikchange; also called P2A variant; source: E. coli expression strains (JRG6782, 6783 and 6784), purified (Heparin-HP, HiLoad Superdex 200)

Target: the molecule itself
Experiment: SEC; calibrated size exclusion chromatography column; elution volume compared with standards

Row | Protein | stoichiometry N
1 | B1 | 4
2 | B2 | 4
3 | B3 | 4
